Measured values from article PMC3759041.

Target: GFP-Hace1 (HECT domain and Ankyrin repeat Containing E3 ubiquitin-protein ligase 1) (UniProt Q8IYU2)
Chain of UniProt Q8IYU2 (Q8IYU2 whole entry, the tested form may be a part): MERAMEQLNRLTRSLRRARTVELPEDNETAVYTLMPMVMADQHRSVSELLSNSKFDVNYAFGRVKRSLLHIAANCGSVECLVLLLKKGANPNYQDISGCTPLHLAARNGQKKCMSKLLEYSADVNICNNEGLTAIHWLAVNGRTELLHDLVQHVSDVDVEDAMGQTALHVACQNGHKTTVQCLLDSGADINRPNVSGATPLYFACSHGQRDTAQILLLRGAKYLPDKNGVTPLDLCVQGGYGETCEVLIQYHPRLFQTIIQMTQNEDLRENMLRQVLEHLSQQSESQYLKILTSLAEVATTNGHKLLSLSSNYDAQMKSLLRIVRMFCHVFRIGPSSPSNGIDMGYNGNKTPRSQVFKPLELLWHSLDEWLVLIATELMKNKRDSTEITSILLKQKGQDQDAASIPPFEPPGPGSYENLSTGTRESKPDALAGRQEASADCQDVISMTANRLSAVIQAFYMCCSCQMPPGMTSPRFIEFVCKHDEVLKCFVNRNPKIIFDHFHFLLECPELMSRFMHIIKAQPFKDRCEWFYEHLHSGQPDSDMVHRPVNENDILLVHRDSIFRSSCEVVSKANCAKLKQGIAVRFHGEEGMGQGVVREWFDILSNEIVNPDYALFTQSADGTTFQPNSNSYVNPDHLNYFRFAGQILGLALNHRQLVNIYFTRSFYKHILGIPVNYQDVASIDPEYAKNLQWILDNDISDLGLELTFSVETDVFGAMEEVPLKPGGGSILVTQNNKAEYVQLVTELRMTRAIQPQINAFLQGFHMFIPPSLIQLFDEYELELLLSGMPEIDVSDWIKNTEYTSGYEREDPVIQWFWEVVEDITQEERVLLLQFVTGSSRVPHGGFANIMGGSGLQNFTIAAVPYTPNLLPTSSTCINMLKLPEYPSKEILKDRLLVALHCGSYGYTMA

Substance “Rac1 (from UniProt P63000 1-192) (natural protein; other documents disagree on this pair)” has a fraction of the total Rac1 pool bound by Hace1 of under 10%.
